# According to patent US20260209386A1 (MYTHIC THERAPEUTICS, published 2026):
# T1: Human PTK7 (human, UniProt Q13308 31-1070)
# T1 sequence: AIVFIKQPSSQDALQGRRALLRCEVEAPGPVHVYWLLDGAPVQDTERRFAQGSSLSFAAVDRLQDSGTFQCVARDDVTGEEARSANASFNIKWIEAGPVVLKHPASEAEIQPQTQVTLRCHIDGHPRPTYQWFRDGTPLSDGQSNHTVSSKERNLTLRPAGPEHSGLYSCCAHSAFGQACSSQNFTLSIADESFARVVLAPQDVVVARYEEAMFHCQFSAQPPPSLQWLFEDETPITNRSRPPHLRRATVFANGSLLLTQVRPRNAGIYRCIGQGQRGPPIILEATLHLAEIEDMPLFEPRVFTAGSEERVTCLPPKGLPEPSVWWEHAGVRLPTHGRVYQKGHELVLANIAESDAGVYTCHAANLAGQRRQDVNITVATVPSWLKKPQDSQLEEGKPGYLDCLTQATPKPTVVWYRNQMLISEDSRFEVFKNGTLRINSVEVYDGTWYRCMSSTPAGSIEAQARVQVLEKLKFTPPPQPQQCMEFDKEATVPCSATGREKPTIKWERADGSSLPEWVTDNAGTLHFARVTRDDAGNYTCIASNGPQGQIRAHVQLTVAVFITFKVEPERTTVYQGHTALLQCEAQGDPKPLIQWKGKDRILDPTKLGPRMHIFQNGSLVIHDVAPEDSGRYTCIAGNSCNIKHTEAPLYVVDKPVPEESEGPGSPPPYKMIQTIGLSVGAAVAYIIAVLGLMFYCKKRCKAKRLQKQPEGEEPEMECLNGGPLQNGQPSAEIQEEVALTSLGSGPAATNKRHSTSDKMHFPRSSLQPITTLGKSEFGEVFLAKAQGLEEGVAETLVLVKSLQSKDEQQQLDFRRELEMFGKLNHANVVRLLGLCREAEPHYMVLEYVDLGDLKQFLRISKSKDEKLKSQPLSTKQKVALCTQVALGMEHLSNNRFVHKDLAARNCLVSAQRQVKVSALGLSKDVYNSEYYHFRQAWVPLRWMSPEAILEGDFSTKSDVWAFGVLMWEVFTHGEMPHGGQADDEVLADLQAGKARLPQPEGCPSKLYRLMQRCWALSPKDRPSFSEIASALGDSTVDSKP
# Molecular target: T1, Human PTK7
# Assay: cell-based or functional assay
row,"Internalization, FOW @ 25 nM (fold over the wildtype, parental antibody)",Binder
1,1.24 fold over parental antibody,"MYT11261 (antibody, V domains shown) VH: EVQLVESGGGLVQPGGSLRLSCTASGIDLSRYHMGWVRQAPGKGLEWVGIISYGGSTYYASWAKGRFTISRDTSKNTVYLQMNSLRAEDTAVYFCARVGYPGYSGYGYAFDAFDPWGQGTLVTVSS VL: EIVMTQSPSTLSASVGDRVIITCQSSKSVYNDNWLSWYQQKPGKAPKLLIYGASTLASGVPSRFSGSGSGAEFTLTISSLQPDDFATYYCAGGYSSSSDNGFGQGTKLTVL"
2,1.68 fold over parental antibody,"MYT11282 (antibody, V domains shown) VH: EVQLVESGGGLVQPGGSLRLSCTASGIDLSRYSMGWVRQAPGKGLEWVGIISYGGSTYYASWAKGRFTISRDTSKNTVYLQMNSLRAEDTAVYFCARHGYPGYSGYGYAFDAFDPWGQGTLVTVSS VL: EIVMTQSPSTLSASVGDRVIITCQSSKSVYNDNWLSWYQQKPGKAPKLLIYGASTLASGVPSRFSGSGSGAEFTLTISSLQPDDFATYYCAGGYSSSSDNGFGQGTKLTVL"
3,1.53 fold over parental antibody,"MYT11291 (antibody, V domains shown) VH: EVQLVESGGGLVQPGGSLRLSCTASGIDLSRYSMGWVRQAPGKGLEWVGIISYGGSTYYASWAKGRFTISRDTSKNTVYLQMNSLRAEDTAVYFCARVGYPGYSGYHYAFDAFDPWGQGTLVTVSS VL: EIVMTQSPSTLSASVGDRVIITCQSSKSVYNDNWLSWYQQKPGKAPKLLIYGASTLASGVPSRFSGSGSGAEFTLTISSLQPDDFATYYCAGGYSSSSDNGFGQGTKLTVL"
4,1.51 fold over parental antibody,"MYT11303 (antibody, V domains shown) VH: EVQLVESGGGLVQPGGSLRLSCTASGIDLSRYSMGWVRQAPGKGLEWVGIISYGGSTYYASWAKGRFTISRDTSKNTVYLQMNSLRAEDTAVYFCARVGYPGYSGYGYAFDAFAPWGQGTLVTVSS VL: EIVMTQSPSTLSASVGDRVIITCQSSKSVYNDNWLSWYQQKPGKAPKLLIYGASTLASGVPSRFSGSGSGAEFTLTISSLQPDDFATYYCAGGYSSSSDNGFGQGTKLTVL"
5,1.66 fold over parental antibody,"MYT11294 (antibody, V domains shown) VH: EVQLVESGGGLVQPGGSLRLSCTASGIDLSRYSMGWVRQAPGKGLEWVGIISYGGSTYYASWAKGRFTISRDTSKNTVYLQMNSLRAEDTAVYFCARVGYPGYSGYGYAHDAFDPWGQGTLVTVSS VL: EIVMTQSPSTLSASVGDRVIITCQSSKSVYNDNWLSWYQQKPGKAPKLLIYGASTLASGVPSRFSGSGSGAEFTLTISSLQPDDFATYYCAGGYSSSSDNGFGQGTKLTVL"
6,1.16 fold over parental antibody,"MYT11280 (antibody, V domains shown) VH: EVQLVESGGGLVQPGGSLRLSCTASGIDLSRYSMGWVRQAPGKGLEWVGIISYGGSTYYASWAKGRFTISRDTSKNTVYLQMNSLRAEDTAVYFCHRVGYPGYSGYGYAFDAFDPWGQGTLVTVSS VL: EIVMTQSPSTLSASVGDRVIITCQSSKSVYNDNWLSWYQQKPGKAPKLLIYGASTLASGVPSRFSGSGSGAEFTLTISSLQPDDFATYYCAGGYSSSSDNGFGQGTKLTVL"
7,1.51 fold over parental antibody,"MYT11297 (antibody, V domains shown) VH: EVQLVESGGGLVQPGGSLRLSCTASGIDLSRYSMGWVRQAPGKGLEWVGIISYGGSTYYASWAKGRFTISRDTSKNTVYLQMNSLRAEDTAVYFCARVGYPGYSGYGYAFDAHDPWGQGTLVTVSS VL: EIVMTQSPSTLSASVGDRVIITCQSSKSVYNDNWLSWYQQKPGKAPKLLIYGASTLASGVPSRFSGSGSGAEFTLTISSLQPDDFATYYCAGGYSSSSDNGFGQGTKLTVL"
8,1.65 fold over parental antibody,"MYT11293 (antibody, V domains shown) VH: EVQLVESGGGLVQPGGSLRLSCTASGIDLSRYSMGWVRQAPGKGLEWVGIISYGGSTYYASWAKGRFTISRDTSKNTVYLQMNSLRAEDTAVYFCARVGYPGYSGYGYHFDAFDPWGQGTLVTVSS VL: EIVMTQSPSTLSASVGDRVIITCQSSKSVYNDNWLSWYQQKPGKAPKLLIYGASTLASGVPSRFSGSGSGAEFTLTISSLQPDDFATYYCAGGYSSSSDNGFGQGTKLTVL"
9,1.57 fold over parental antibody,"MYT11271 (antibody, V domains shown) VH: EVQLVESGGGLVQPGGSLRLSCTASGIDLSRYSMGWVRQAPGKGLEWVGIISYGGSHYYASWAKGRFTISRDTSKNTVYLQMNSLRAEDTAVYFCARVGYPGYSGYGYAFDAFDPWGQGTLVTVSS VL: EIVMTQSPSTLSASVGDRVIITCQSSKSVYNDNWLSWYQQKPGKAPKLLIYGASTLASGVPSRFSGSGSGAEFTLTISSLQPDDFATYYCAGGYSSSSDNGFGQGTKLTVL"
10,1.13 fold over parental antibody,"MYT11264 (antibody, V domains shown) VH: EVQLVESGGGLVQPGGSLRLSCTASGIDLSRYSMGWVRQAPGKGLEWVGHISYGGSTYYASWAKGRFTISRDTSKNTVYLQMNSLRAEDTAVYFCARVGYPGYSGYGYAFDAFDPWGQGTLVTVSS VL: EIVMTQSPSTLSASVGDRVIITCQSSKSVYNDNWLSWYQQKPGKAPKLLIYGASTLASGVPSRFSGSGSGAEFTLTISSLQPDDFATYYCAGGYSSSSDNGFGQGTKLTVL"
11,1.51 fold over parental antibody,"MYT11284 (antibody, V domains shown) VH: EVQLVESGGGLVQPGGSLRLSCTASGIDLSRYSMGWVRQAPGKGLEWVGIISYGGSTYYASWAKGRFTISRDTSKNTVYLQMNSLRAEDTAVYFCARVGHPGYSGYGYAFDAFDPWGQGTLVTVSS VL: EIVMTQSPSTLSASVGDRVIITCQSSKSVYNDNWLSWYQQKPGKAPKLLIYGASTLASGVPSRFSGSGSGAEFTLTISSLQPDDFATYYCAGGYSSSSDNGFGQGTKLTVL"
12,1.82 fold over parental antibody,"MYT11307 (antibody, V domains shown) VH: EVQLVESGGGLVQPGGSLRLSCTASGIDLSRYSMGWVRQAPGKGLEWVGIISYGGSTYYASWAKGRFTISRDTSKNTVYLQMNSLRAEDTAVYFCARVGYPGYSGYGYAFDAFDPWGQGTLVTVSS VL: EIVMTQSPSTLSASVGDRVIITCQSSHSVYNDNWLSWYQQKPGKAPKLLIYGASTLASGVPSRFSGSGSGAEFTLTISSLQPDDFATYYCAGGYSSSSDNGFGQGTKLTVL"
13,1.64 fold over parental antibody,"MYT11310 (antibody, V domains shown) VH: EVQLVESGGGLVQPGGSLRLSCTASGIDLSRYSMGWVRQAPGKGLEWVGIISYGGSTYYASWAKGRFTISRDTSKNTVYLQMNSLRAEDTAVYFCARVGYPGYSGYGYAFDAFDPWGQGTLVTVSS VL: EIVMTQSPSTLSASVGDRVIITCQSSKSVHNDNWLSWYQQKPGKAPKLLIYGASTLASGVPSRFSGSGSGAEFTLTISSLQPDDFATYYCAGGYSSSSDNGFGQGTKLTVL"
14,1.71 fold over parental antibody,"MYT11287 (antibody, V domains shown) VH: EVQLVESGGGLVQPGGSLRLSCTASGIDLSRYSMGWVRQAPGKGLEWVGIISYGGSTYYASWAKGRFTISRDTSKNTVYLQMNSLRAEDTAVYFCARVGYPGHSGYGYAFDAFDPWGQGTLVTVSS VL: EIVMTQSPSTLSASVGDRVIITCQSSKSVYNDNWLSWYQQKPGKAPKLLIYGASTLASGVPSRFSGSGSGAEFTLTISSLQPDDFATYYCAGGYSSSSDNGFGQGTKLTVL"
15,1.11 fold over parental antibody,"MYT11281 (antibody, V domains shown) VH: EVQLVESGGGLVQPGGSLRLSCTASGIDLSRYSMGWVRQAPGKGLEWVGIISYGGSTYYASWAKGRFTISRDTSKNTVYLQMNSLRAEDTAVYFCAHVGYPGYSGYGYAFDAFDPWGQGTLVTVSS VL: EIVMTQSPSTLSASVGDRVIITCQSSKSVYNDNWLSWYQQKPGKAPKLLIYGASTLASGVPSRFSGSGSGAEFTLTISSLQPDDFATYYCAGGYSSSSDNGFGQGTKLTVL"
16,1.59 fold over parental antibody,"MYT11292 (antibody, V domains shown) VH: EVQLVESGGGLVQPGGSLRLSCTASGIDLSRYSMGWVRQAPGKGLEWVGIISYGGSTYYASWAKGRFTISRDTSKNTVYLQMNSLRAEDTAVYFCARVGYPGYSGYGHAFDAFDPWGQGTLVTVSS VL: EIVMTQSPSTLSASVGDRVIITCQSSKSVYNDNWLSWYQQKPGKAPKLLIYGASTLASGVPSRFSGSGSGAEFTLTISSLQPDDFATYYCAGGYSSSSDNGFGQGTKLTVL"
17,1.37 fold over parental antibody,"MYT11305 (antibody, V domains shown) VH: EVQLVESGGGLVQPGGSLRLSCTASGIDLSRYSMGWVRQAPGKGLEWVGIISYGGSTYYASWAKGRFTISRDTSKNTVYLQMNSLRAEDTAVYFCARVGYPGYSGYGYAFDAFDPWGQGTLVTVSS VL: EIVMTQSPSTLSASVGDRVIITCQHSKSVYNDNWLSWYQQKPGKAPKLLIYGASTLASGVPSRFSGSGSGAEFTLTISSLQPDDFATYYCAGGYSSSSDNGFGQGTKLTVL"
